According to the supplement of paper PMC9233669:
Variants at the floor of the assay were thinned out.

What was measured:
biotinyl-Val-oxazolone = assay: self-aminoacylation, catalytic enhancement (BVO) (fold over background); higher = more active; k-Seq, kA / k0A0; sequences stand for … in GGGAAUGGAUCCACAUCUACGAAUUC…UUCACUGCAGACUUGACGAAGCUG
Method in brief: (§1)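 Working in 50 μL HEPES/NaCl/KCl/MgCl2/CaCl2 buffer with 5% acetonitrile at pH 6.9–7.0, mutagenized RNA pools (0.43 μM; 21-nt variable region) were reacted with 2–1250 μM of each biotinyl-aminoacyl-oxazolone for 90 minutes at room temperature. Streptavidin capture followed, with quantification by triplicate qPCR and Illumina sequencing. Catalytic enhancement is reported as median kA over the uncatalyzed rate, the low-activity peak of a bimodal Gaussian fit to the data.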

biotinyl-Phe-oxazolone = assay: self-aminoacylation, catalytic enhancement (BFO) (fold over background); higher = more active; k-Seq, kA / k0A0; sequences stand for … in GGGAAUGGAUCCACAUCUACGAAUUC…UUCACUGCAGACUUGACGAAGCUG
Method in brief: as §1

biotinyl-Ile-oxazolone = assay: self-aminoacylation, catalytic enhancement (BIO) (fold over background); higher = more active; k-Seq, kA / k0A0; sequences stand for … in GGGAAUGGAUCCACAUCUACGAAUUC…UUCACUGCAGACUUGACGAAGCUG
Method in brief: as §1

biotinyl-Leu-oxazolone = assay: self-aminoacylation, catalytic enhancement (BLO) (fold over background); higher = more active; k-Seq, kA / k0A0; sequences stand for … in GGGAAUGGAUCCACAUCUACGAAUUC…UUCACUGCAGACUUGACGAAGCUG
Method in brief: as §1

biotinyl-Trp-oxazolone = assay: self-aminoacylation, catalytic enhancement (BWO) (fold over background); higher = more active; k-Seq, kA / k0A0; sequences stand for … in GGGAAUGGAUCCACAUCUACGAAUUC…UUCACUGCAGACUUGACGAAGCUG
Method in brief: as §1

biotinyl-Met-oxazolone = assay: self-aminoacylation, catalytic enhancement (BMO) (fold over background); higher = more active; k-Seq, kA / k0A0; sequences stand for … in GGGAAUGGAUCCACAUCUACGAAUUC…UUCACUGCAGACUUGACGAAGCUG
Method in brief: as §1

Sequence	self-aminoacylation (biotinyl-Val-oxazolone)	self-aminoacylation (biotinyl-Phe-oxazolone)	self-aminoacylation (biotinyl-Ile-oxazolone)	self-aminoacylation (biotinyl-Leu-oxazolone)	self-aminoacylation (biotinyl-Trp-oxazolone)	self-aminoacylation (biotinyl-Met-oxazolone)
AUUCACCUAUGCCAUCGGGUG [Fam2.2 aminoacylation ribozyme variant]	1.98	18.9	1.5	3.21	3.42	2.85
AUUCACCUAUGGCAUCGGGUG [Fam2.2 aminoacylation ribozyme variant]	1.94	11.9	1.96	2.84	2.25	2.41
AUUCACCUAUGUCAACGGGUG [Fam2.2 aminoacylation ribozyme variant]	2.01	16.8	1.83	3.35	2.52	2.83
AUUCACCUAUGUCACCGGGUG [Fam2.2 aminoacylation ribozyme variant]	2.27	19	2.34	4.89	3.43	3.22
AUUCACCUAUGUCAGCGGGUG [Fam2.2 aminoacylation ribozyme variant]	2.33	28.7	2.87	4.78	3.73	3.6
AUUCACCUAUGUCAUCGAGUG [Fam2.2 aminoacylation ribozyme variant]	2.98	17.2	3.35	5.42	4.95	4.64
AUUCACCUAUGUCAUCGGCUG [Fam2.2 aminoacylation ribozyme variant]	1.3	0.644	1.38	1.26	0.681	1.21
AUUCACCUAUGUCAUCGGGUU [Fam2.2 aminoacylation ribozyme variant]	1.61	0.724	1.35	1.86	1.75	1.48
AUUCACCUAUGUCCUCGGGUG [Fam2.2 aminoacylation ribozyme variant]	2.04	21.6	2.17	4.03	3.42	3.04
AUUCACCUAUGUCGUCGGGUG [Fam2.2 aminoacylation ribozyme variant]	1.15	6.21	1.19	1.44	1.3	1.28
AUUCACCUAUGUGAUCGGGUG [Fam2.2 aminoacylation ribozyme variant]	1.99	15.9	1.69	2.74	2.25	2.14
AUUCACCUCCGUCAUCGGGUG [Fam2.2 aminoacylation ribozyme variant]	4.91	70.3	5.62	10.8	8.32	8.59
AUUCACCUCGGUCAACGGGUG [Fam2.2 aminoacylation ribozyme variant]	2.82	27.8	2.44	5.39	3.36	3.98
AUUCACCUCGGUCAUAGGGUG [Fam2.2 aminoacylation ribozyme variant]	1.19	5.66	1.11	1.76	1.43	1.41
AUUCACCUCGGUCAUCCGGUG [Fam2.2 aminoacylation ribozyme variant]	7.28	78.8	6.84	14	11.1	12.2
AUUCACCUCGGUCAUCGGGUA [Fam2.2 aminoacylation ribozyme variant]	3.25	17	2.96	2.87	3.95	3.24
AUUCACCUGAGUCAUCGGGUG [Fam2.2 aminoacylation ribozyme variant]	5.03	35.9	5.26	15	9.59	13
AUUCACCUGCGUCAUCGGGUG [Fam2.2 aminoacylation ribozyme variant]	5.41	49.4	5.17	10.6	7.09	7.79
AUUCACCUGGGUCAUCAGGUG [Fam2.2 aminoacylation ribozyme variant]	1.92	6.12	1.52	1.67	1.36	1.48
AUUCACCUGGGUCAUCGCGUG [Fam2.2 aminoacylation ribozyme variant]	9.89	110	8.24	17.1	14.3	14.3
AUUCACCUGGGUCAUGGGGUG [Fam2.2 aminoacylation ribozyme variant]	4.9	51.6	4.05	9.15	6.16	6.65
AUUCACCUGGGUCCUCGGGUG [Fam2.2 aminoacylation ribozyme variant]	4.67	39	4.33	7.74	6.22	6.49

Sequence	self-aminoacylation (biotinyl-Val-oxazolone)	self-aminoacylation (biotinyl-Phe-oxazolone)	self-aminoacylation (biotinyl-Ile-oxazolone)	self-aminoacylation (biotinyl-Leu-oxazolone)	self-aminoacylation (biotinyl-Trp-oxazolone)	self-aminoacylation (biotinyl-Met-oxazolone)
AUUCACCUGGGUCGUCGGGUG [Fam2.2 aminoacylation ribozyme variant]	2.48	6.66	1.93	2.3	2.11	2.46
AUUCACCUGGUUCAUCGGGUG [Fam2.2 aminoacylation ribozyme variant]	3.1	15.2	2.42	3.19	3.62	3.08
AUUCACCUUGCUCAUCGGGUG [Fam2.2 aminoacylation ribozyme variant]	2	10.7	1.84	2.63	2.01	1.94
AUUCACCUUGGUCAACGGGUG [Fam2.2 aminoacylation ribozyme variant]	2.2	20.3	2.22	4.24	3.03	3.19
AUUCACCUUGGUCAGCGGGUG [Fam2.2 aminoacylation ribozyme variant]	3.16	25.6	2.71	5.32	3.71	3.99
AUUCACCUUGGUCAUCGGGAG [Fam2.2 aminoacylation ribozyme variant]	1.05	0.73	1.07	1.09	1.27	1.05
AUUCACCUUGGUCAUCGGGUC [Fam2.2 aminoacylation ribozyme variant]	1.58	4.87	1.2	1.15	1.28	1.32
AUUCACCUUGGUCGUCGGGUG [Fam2.2 aminoacylation ribozyme variant]	1.81	11.3	1.9	2.18	2.01	1.86
AUUCACCUUGGUUAUCGGGUG [Fam2.2 aminoacylation ribozyme variant]	3.85	35.2	3.26	5.92	5.27	5.13
AUUCACCUUGUUCAUCGGGUG [Fam2.2 aminoacylation ribozyme variant]	2.42	15.2	2.01	3.38	2.91	2.72
AUUCACCUUUGUCAUCGGGUG [Fam2.2 aminoacylation ribozyme variant]	3.11	25.4	3.14	5.41	4.62	4.43
AUUCACGUAGGCCAUCGGGUG [Fam2.2 aminoacylation ribozyme variant]	5.3	48.1	3.71	4.12	5.37	4.29
AUUCACGUAGGUCAACGGGUG [Fam2.2 aminoacylation ribozyme variant]	3.15	21.1	2.77	4.96	4.47	3.95
AUUCACGUAGGUCAUCCGGUG [Fam2.2 aminoacylation ribozyme variant]	8.57	120	7.72	17	12.1	13.2
AUUCACGUAGGUCAUCGGCUG [Fam2.2 aminoacylation ribozyme variant]	3.36	6.6	2.35	2.91	3.17	2.35
AUUCACGUAGGUCAUGGGGUG [Fam2.2 aminoacylation ribozyme variant]	4.23	24.6	3.34	5.48	4.5	3.45
AUUCACGUAGGUCUUCGGGUG [Fam2.2 aminoacylation ribozyme variant]	5.24	40.1	3.86	4.82	4.88	4.21
AUUCACUUACGUCAUCGGGUG [Fam2.2 aminoacylation ribozyme variant]	3.36	38.4	3.35	7.03	5.63	5.61
AUUCACUUAGGACAUCGGGUG [Fam2.2 aminoacylation ribozyme variant]	2.33	14.1	2.33	3.44	2.78	3.21
AUUCACUUAGGUCAUCGGGAG [Fam2.2 aminoacylation ribozyme variant]	1.11	0.746	1.02	1.22	0.745	1.1
AUUCACUUAGGUCAUCGGGCG [Fam2.2 aminoacylation ribozyme variant]	3.17	4.38	2.55	4.02	3.91	3.18
